Source: paper PMC11274882, “RNA Binding Properties of SOX Family Members”

Experiments:
SOX30 HMG-box [1] = target: T1, SOX30 HMG-box (UniProt O94993 335-423); assay: EMSA; FP: 50 mM Tris, 125 mM NaCl, pH 8.0, 80 nM RNA, temperature not stated; EMSA: equal volumes of 100 uM protein and ssDNA, room temperature 15 min, 1.5% agarose; conditions: protein: recombinant; tags: 6xHis; named 60-mer; length as printed may differ
T1 sequence: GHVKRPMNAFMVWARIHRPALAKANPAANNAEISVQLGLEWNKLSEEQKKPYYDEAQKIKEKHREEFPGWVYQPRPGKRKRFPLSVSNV

SRY HMG-box = SRY HMG-box (UniProt Q05066 58-140); assay: as above; conditions: protein: recombinant; tags: 6xHis; named 60-mer; length as printed may differ
SRY HMG-box, sequence (Q05066 58-140): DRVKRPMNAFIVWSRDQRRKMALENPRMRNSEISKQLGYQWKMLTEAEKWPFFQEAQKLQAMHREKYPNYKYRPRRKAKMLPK

SOX15 HMG-box = SOX15 HMG-box (UniProt O60248 47-135); assay: as above; conditions: protein: recombinant; tags: 6xHis; named 60-mer; length as printed may differ
SOX15 HMG-box, sequence (O60248 47-135): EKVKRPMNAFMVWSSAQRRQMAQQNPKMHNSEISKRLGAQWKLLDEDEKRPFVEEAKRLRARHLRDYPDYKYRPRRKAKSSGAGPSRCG

SOX17 HMG-box WT [2] = target: T2, SOX17 HMG-box WT (UniProt Q9H6I2 66-145); assay: as above; conditions: protein: recombinant, tags: 6xHis
T2 sequence (Q9H6I2 66-145): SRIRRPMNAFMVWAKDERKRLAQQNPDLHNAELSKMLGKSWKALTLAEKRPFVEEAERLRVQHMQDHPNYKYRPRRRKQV

SOX11 HMG-box = SOX11 HMG-box (UniProt P35716 47-135); assay: as above; conditions: protein: recombinant; tags: 6xHis; named 60-mer; length as printed may differ
SOX11 HMG-box, sequence (P35716 47-135): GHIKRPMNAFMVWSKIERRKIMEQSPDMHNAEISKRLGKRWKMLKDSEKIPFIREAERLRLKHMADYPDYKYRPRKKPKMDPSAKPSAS

SOX9 HMG-box = SOX9 HMG-box (UniProt P48436 103-183); assay: as above; conditions: protein: recombinant; tags: 6xHis; named 60-mer; length as printed may differ
SOX9 HMG-box, sequence (P48436 103-183): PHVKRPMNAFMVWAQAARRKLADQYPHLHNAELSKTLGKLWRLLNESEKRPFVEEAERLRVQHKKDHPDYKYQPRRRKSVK

SOX6 HMG-box = SOX6 HMG-box (UniProt P35712 619-707); assay: as above; conditions: protein: recombinant; named 60-mer; length as printed may differ
SOX6 HMG-box, sequence (P35712 619-707): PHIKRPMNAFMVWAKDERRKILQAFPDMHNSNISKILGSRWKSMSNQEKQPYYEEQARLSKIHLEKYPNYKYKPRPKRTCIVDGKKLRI

SOX21 HMG-box = SOX21 HMG-box (UniProt Q9Y651 6-94); assay: EMSA; complex stays in well; FP: 50 mM Tris, 125 mM NaCl, pH 8.0, 80 nM RNA, temperature not stated; EMSA: equal volumes of 100 uM protein and ssDNA, room temperature 15 min, 1.5% agarose; conditions: protein: recombinant; tags: 6xHis; named 60-mer; length as printed may differ
SOX21 HMG-box, sequence (Q9Y651 6-94): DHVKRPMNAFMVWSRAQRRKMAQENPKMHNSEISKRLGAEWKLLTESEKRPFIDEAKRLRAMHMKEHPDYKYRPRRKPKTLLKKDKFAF

SOX2 HMG-box [3] = target: T3, SOX2 HMG-box (UniProt P48431 39-127); assay: as above; conditions: protein: recombinant; named 60-mer; length as printed may differ
T3 sequence (P48431 39-127): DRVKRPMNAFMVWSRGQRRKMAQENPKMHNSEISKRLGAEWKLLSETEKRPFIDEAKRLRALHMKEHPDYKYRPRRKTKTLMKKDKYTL

SOX17 HMG-box WT [4] = target: T2, SOX17 HMG-box WT; assay: NMR HSQC titration; 100 uM protein, 25-100 uM ssDNA; shifts at R125-R138, I68, A74, M76, E97, K100, W106; FP: 50 mM Tris, 125 mM NaCl, pH 8.0, 80 nM RNA, temperature not stated; EMSA: equal volumes of 100 uM protein and ssDNA, room temperature 15 min, 1.5% agarose; conditions: protein: recombinant; tags: 6xHis
SOX30 HMG-box [5] = target: T1, SOX30 HMG-box; assay: fluorescence polarisation; FP: 50 mM Tris, 125 mM NaCl, pH 8.0, 80 nM RNA, temperature not stated; EMSA: equal volumes of 100 uM protein and ssDNA, room temperature 15 min, 1.5% agarose; conditions: protein: recombinant; tags: 6xHis; label: 3' FAM; hairpin
SOX17 dC HMG-box [6] = target: T4, SOX17 dC HMG-box (UniProt Q9H6I2 66-137); assay: as above; conditions: protein: recombinant; tags: 6xHis; label: 3' FAM; hairpin
T4 sequence (Q9H6I2 66-137): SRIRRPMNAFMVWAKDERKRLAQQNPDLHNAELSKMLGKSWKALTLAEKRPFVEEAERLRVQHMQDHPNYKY

SOX2 HMG-box [7] = target: T3, SOX2 HMG-box; assay: as above; conditions: protein: recombinant; label: 3' FAM; hairpin
SOX17 dCN HMG-box [8] = target: T5, SOX17 dCN HMG-box (UniProt Q9H6I2 74-137); assay: as above; conditions: protein: recombinant; tags: 6xHis; label: 3' FAM; hairpin
T5 sequence (Q9H6I2 74-137): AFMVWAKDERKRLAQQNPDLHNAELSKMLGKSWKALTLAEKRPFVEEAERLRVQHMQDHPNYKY

SOX17 HMG-box WT [9] = target: T2, SOX17 HMG-box WT; assay: as above; conditions: protein: recombinant; tags: 6xHis; label: 3' FAM; hairpin
SOX17 dC HMG-box [10] = target: T4, SOX17 dC HMG-box; assay: EMSA; FP: 50 mM Tris, 125 mM NaCl, pH 8.0, 80 nM RNA, temperature not stated; EMSA: equal volumes of 100 uM protein and ssDNA, room temperature 15 min, 1.5% agarose; conditions: protein: recombinant; tags: 6xHis
SOX17 dCN HMG-box [11] = target: T5, SOX17 dCN HMG-box; assay: as above; conditions: protein: recombinant; tags: 6xHis
SOX17 dN HMG-box = SOX17 dN HMG-box (UniProt Q9H6I2 74-145); assay: as above; conditions: protein: recombinant; tags: 6xHis
SOX17 dN HMG-box, sequence (Q9H6I2 74-145): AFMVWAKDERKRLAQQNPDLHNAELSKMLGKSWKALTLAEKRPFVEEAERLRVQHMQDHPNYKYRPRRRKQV

B1: 60-mer ssDNA (ssDNA)
DNA: GTTAGAGGTGCCCCACAGGCGGCGGTTAGTATTCCCCGCCGCCTGGGGCACCGGGGCAC
- binding result (SOX30 HMG-box [1]): no binding
- binding result (SRY HMG-box): binds
- binding result (SOX15 HMG-box): binds
- binding result (SOX17 HMG-box WT [2]; named 60-mer, length as printed may differ): binds
- binding result (SOX11 HMG-box): binds
- binding result (SOX9 HMG-box): binds
- binding result (SOX6 HMG-box): binds
- binding result (SOX21 HMG-box): binds
- binding result (SOX2 HMG-box [3]): binds

Binder: ATCGATCGATCG (ssDNA) [12-mer ssDNA]
- binding result (SOX17 HMG-box WT [4]): binds

Binder: GGUCGCCGUGGCCACUUCGAAAGGGGUGGAAAGGGCGACC (structured_RNA) [40-mer RNA, ES2 lncRNA hairpin Loop A]
- binding result (SOX30 HMG-box [5]): no binding
- binding result (SOX17 dC HMG-box [6]): no binding
- Kd (SOX2 HMG-box [7]): ~57 nM
- binding result (SOX17 dCN HMG-box [8]): no binding
- Kd (SOX17 HMG-box WT [9]): ~327 nM

Binder: CCCCATCTTAGTATATTAGTTA (ssDNA) [22-mer ssDNA]
- binding result (SOX17 dC HMG-box [10]): no binding
- binding result (SOX17 dCN HMG-box [11]): no binding
- binding result (SOX17 dN HMG-box): binds
- binding result (SOX17 HMG-box WT [2]): binds
